Here are results for 2 molecules from PMC12609441, “Comparative Preclinical Evaluation of the Tumor-Targeting Properties of Radioiodine and Technetium-Labeled Designed Ankyrin Repeat Proteins for Imaging of Epidermal Growth Factor Receptor Expression in Malignant Tumors” (International Journal of Molecular Sciences, 2025).

The target in this assay is T1, epidermal growth factor receptor (EGFR) (human (endogenous in A-431, DU-145, …, UniProt P00533 25-1210)).
T1 construct: also called ErbB1; HER1
The assay can be described thus: radioligand binding; saturation assay on living A-431 cells; eight concentrations of radiolabeled protein 0.22 to 40 nM, 4 h at 4 °C; nonspecific binding with 50-fold molar excess of unlabeled (HE)3-E01; nonlinear regression. The settings on record: one partner purified.

B1: [^99mTc]Tc-(HE)3-E01 (designed binder)
chain: MRGSHEHEHEGSDLGKKLLEAARAGQDDEVRILMANGADVNADDTWGWTPLHLAAYQGHLEIVEVLLKNGADVNAYDYIGWTPLHLAADGHLEIVEVLLKNGADVNASDYIGDTPLHLAAHNGHLEIVEVLLKHGADVNAQDKFGKTAFDISIDNGNEDLAEILQKLN
modifications: [^99mTc]Tc(CO)3^+ with the (HE)3 tag as a chelator at the N-terminus
notes: DARPin E01 with the N-terminal (HE)3 tag; also called DARPin (HE)3-E01 labeled with [^99mTc]Tc(CO)3; technetium-labeled variant; source: E. coli, purified; labeled with [^99mTc]Tc(CO)3, isolated on NAP-5 size-exclusion column; not shown: (HE)3, N-terminal, kept
B1 registered a Kd of 4.9 ± 0.5 nM.

B2: [^123I]I-(HE)3-E01-PIB (designed binder)
chain: B1 chain
modifications: [^123I]I-para-iodobenzoate (PIB) conjugated to the N-terminal or one of eight lysine amino groups (site-unspecific)
notes: DARPin E01 with the N-terminal (HE)3 tag; source: E. coli, purified; not shown: (HE)3, N-terminal, kept
For the molecule B2, the Kd was 2.5 ± 0.5 nM.

For orientation: Kd means the constant that tells how readily two partners part at equilibrium. Read a low Kd as tighter binding.
